Numbering of substitutions follows the chain as printed.
Key:
Conditions in all cases: BLI in buffer A (5 mM HEPES pH 7.5, 10 mM NaCl), 2.5-10 uM protein; CD with 7.5 or 15 uM ds-(dCdG)6, protein/DNA 0-8, buffer not shown in material; temperature …
[1] = test system: yabZαE3L (yaba-like disease virus); test: BLI
[2] = target: T1, caZαPKZ R39A/K56A R39A;K56A (Carassius auratus) (UniProt Q7T2M9); test: CD B-to-Z transition
T1 sequence: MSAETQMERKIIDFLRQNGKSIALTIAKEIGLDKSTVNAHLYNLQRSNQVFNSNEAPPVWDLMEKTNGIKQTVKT

[3] = target: T2, caZαPKZ S35A/K56A/P57A S35A;K56A;P57A (Carassius auratus) (UniProt Q7T2M9); test: CD B-to-Z transition
T2 sequence: T1 sequence with S35A, A39R, P57A

[4] = target: T3, caZαPKZ K56A/P57A K56A;P57A (Carassius auratus) (UniProt Q7T2M9); test: CD B-to-Z transition
T3 sequence: T1 sequence with A39R, P57A

Which Kd [1] does the source give for “ATTATATCGCGCGCGCGCGCGCGCGCGCG / CGCGCGCGCGCGCGCGCGCG [biotin-ATTATAT(CG)10 duplex]” here?
Its Kd is 87.2 nM.

Which binding signal (% of WT activity) [2] does the source give for “CGCGCGCGCGCG (double strand) [ds-(dCdG)6]” here?
The binding signal (% of WT activity) was 80.

And the binding signal (% of WT activity) [3]?
The binding signal (% of WT activity) was 50.

And the binding signal (% of WT activity) [4]?
Its binding signal (% of WT activity) is 50.

From PMC4027156
